One assay has as its target T1, CD44-IgG1Fc (Homo sapiens, UniProt P16070).
T1 construct: purchased R & D systems
Description: Direct ELISA: binding of coated macromolecules to CD44-IgG1Fc. The protocol:
High-binding microtiter plates (Corning, Sigma Aldrich, USA) were coated with rhPRG4 (Mr≅240 KDa), high molecular weight HA (HMW HA; Mr≅1,500 KDa) (R & D System, USA), medium molecular weight HA (MMW HA; Mr≅′300KDa) (R & D System) and vitronectin KDa) (Sigma Aldrich) at 400 μg/mL in PBS buffer (100 μL per well) overnight at 4° C. rhPRG4 is a full-length product produced by CHO-M cells (Lubris, Framingham, Mass., USA). Following washing with PBS+0.1% Tween 20, wells were blocked with 2% bovine serum albumin (BSA; 300 μL per well) for at least 2 hours at room temperature. CD44-IgG1Fc (R & D systems) or IgG1Fc (R & D systems), each at 1 μg/mL (100 μl per well), were added to the plate and incubated for 60 min at room temperature. Following washing with PBS+0.1% tween 20, anti-IgG1Fc-HRP (Sigma Aldrich) was added at 1:10,000 dilution (100 μL per well) and incubated for 60 min at room temp. Following washing with PBS+0.1% tween 20, the assay was developed using 1-step Turbo TMB ELISA reagent (ThermoScientific, USA) and absorbance was measured at 450 nm. The data represents an average of 4 independent assays, each with triplicate wells per group.
The concentration-dependent binding of rhPRG4, HMW HA and MMW HA to CD44 was performed by coating microtiter plates with 400, 200, 100, 20, 4, 2 and 0.1 μg/mL of the macromolecules. The assay was performed as described above. The absorbance values in the IgG1Fc wells were subtracted from the absorbance values in the CD44 IgG1Fc wells and the corrected CD44 IgG1Fc absorbance values were normalized to those of the 400 μg/mL rhPRG4 group and data was expressed as percentage binding to CD44. The concentration-dependent binding of rhPRG4, HMW HA and MMW HA to recombinant CD44 is depicted in FIG. 1B. […] The data represents an average of 4 independent assays, each with triplicate wells per group.
rhPRG4 was digested using sialidase A (Prozyme, USA), O-glycosidase (New England Biolabs, USA) or a combination of sialidase A and O-glycosidase for 16 hours at 37° C. In the sialidase A digestion, 12 μL of the enzyme (1U/200 μL) was added to rhPRG4 in a total reaction volume of 180 μL and a rhPRG4 final concentration of 300 μg/mL. In the O-glycosidase digestion, 4.8 μL of the enzyme (40million units/mL) was added to rhPRG4 in a total reaction volume of 180 μL and a rhPRG4 final concentration of 300 μg/mL under non-denaturing conditions. In the sialidase-A and O-glycosidase digestion, the enzymes were used in volumes identical to the ones stated above and incubated with rhPRG4 in a total reaction volume and final rhPRG4 concentration as stated above. The effect of sialidase-A and O-glycosidase digestions on rhPRG4 apparent molecular weight was determined by SDS-PAGE using 4-12% Bis-Tris gel (NuPage, life technologies, USA). A total of 20 μL of rhPRG4 or enzyme-digested rhPRG4 was run under reducing conditions ([…] for 60 min) followed by staining using Gelcode Blue Stain (Thermo Scientific, USA). Binding of enzymatically digested rhPRG4 to CD44 was compared to undigested rhPRG4 using the direct ELISA approach described above and using an rhPRG4 coating concentration of 30 μg/mL. Data represents the average of 4 independent experiments, each with triplicate wells per group.
In general terms: An ELISA detects its analyte on a solid surface through an enzyme-linked reagent.

The subject of another assay is HLE and HLF cells. Put plainly: HCC trans-well migration assay on fibronectin. Type of assay: cell-based, human. Particulars: soluble rhPRG4 25 μg/ml; 16 hours. From the text: Stable CD44 silencing: HLE and HLF cell lines were transduced with lentiviral particles carrying control non-targeting (V), or specific CD44-targeting shRNA sequences (A to D), and selected with puromycin dihydrochloride (Thermo Fisher Scientific) to obtain stable CD44 silencing, according to manufacturer instructions (OriGene Technologies, Inc., Rockville, Md. 20850, USA). Control-shRNA sequence (V) and CD44-shRNA sequence B were used in all the experiments involving CD44 downregulation.
Trans-well migration assay: The assay was performed as previously described. (Dituri et al., PLoS One 2013. doi:10.1371/journal.pone.0067109). Briefly, 15,000 cells were loaded onto the top chamber of the trans-well, whose membrane was previously coated with fibronectin on the lower surface, and left to migrate for 16 hours in the presence/absence of rhPRG4 (25 μg/ml) diluted in serum-free DMEM medium (+0.5% BSA) in the lower chamber. The cells were then paraformaldehyde-fixed and stained with crystal violet. Five fields/membrane were captured and the number of cells/field was measured.

Assay [1] relates to HCC cells (HLE, HLF, PLC/DC/19, Hep3B, PLC/PRF/5). Put plainly: 72-hour proliferation assay, all HCC cells. Type of assay: cell-based, human. The protocol:
(§1) Proliferation assay: In 100 μl complete medium, 3,000 cells were seeded in wells of a 96-well plate and left overnight to allow complete attachment. The next day (at time t=0 hours), the medium was removed and replaced with 100 μl of fresh medium in the presence/absence of Sorafenib (2.5 μM), Regorafenib (2.5 μM), rhPRG4 (12.5 to 100 μg/ml). Dimethyl sulfoxide (DMSO) and PBS+0.01% Tween-20 were used as vehicles of Sorafenib/Regorafenib, and rhPRG4, respectively. Cells in triplicate wells for each cell line were fixed at t=0 hours with 4% paraformaldehyde (PFA, pH 7.6, 10 min incubation), then stained with crystal violet (CV) and thoroughly washed to remove the excess staining. After 72 hours, the cells were fixed by adding 100 μl of 4% PFA directly to the medium (2% final PFA concentration, 20 min incubation), and processed for CV staining as previously described. Then, 100 or 200 μl of 1% sodium dodecyl-sulphate were added to the wells and the plates were left under shaking until complete CV release from stained cells. Optical density was at 595 nm wavelength measured using a plate reader.

A further assay deals with PLC/PRF/5. Put plainly: 72-hour proliferation assay, PLC/PRF/5. Type of assay: cell-based, human. Particulars: drug 2.5 μM. The protocol:
as §1

T1 sequence (P16070 with tags, fused parts or gaps limits assumed): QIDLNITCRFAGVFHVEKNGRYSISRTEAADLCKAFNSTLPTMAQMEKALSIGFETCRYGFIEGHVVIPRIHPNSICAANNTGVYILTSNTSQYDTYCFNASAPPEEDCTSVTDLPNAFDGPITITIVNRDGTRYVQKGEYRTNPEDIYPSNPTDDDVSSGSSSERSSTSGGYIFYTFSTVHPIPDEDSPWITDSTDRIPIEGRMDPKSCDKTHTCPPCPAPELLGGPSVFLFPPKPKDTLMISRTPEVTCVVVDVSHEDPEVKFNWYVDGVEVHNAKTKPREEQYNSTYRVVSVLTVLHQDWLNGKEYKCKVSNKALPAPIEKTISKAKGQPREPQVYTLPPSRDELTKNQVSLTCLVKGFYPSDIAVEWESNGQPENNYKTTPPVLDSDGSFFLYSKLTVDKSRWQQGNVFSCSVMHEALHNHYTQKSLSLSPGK

For “rhPRG4: full-length recombinant human PRG4 (lubricin) glycoprotein produced by CHO-M cells; residues 25-1404 of SEQ ID NO:1”, the “concentration-dependent binding to CD44, affinity” value with CD44-IgG1Fc was “comparable affinity to HMW HA”. The “percentage CD44 binding between rhPRG4, HMW HA and MMW HA-coated wells” value with CD44-IgG1Fc (0.1 μg/mL coating) is listed as “no significant differences”. Also, the “percentage recombinant CD44 binding compared to MMW HA coated wells” value with CD44-IgG1Fc (200 μg/mL coating, p<0.001) is listed as “significantly higher”. Besides, the “percentage recombinant CD44 binding compared to HMW HA or MMW HA-coated wells” value in the assay with CD44-IgG1Fc (400, 100, 20, 4 and 2 μg/mL coating, p<0.001) is reported as “significantly higher”. The “450 nm absorbance in the CD44-IgG1Fc group vs the IgG1Fc group” value in the assay with CD44-IgG1Fc (wells coated at 400 μg/mL, CD44-IgG1Fc or IgG1Fc at 1 μg/mL) is “significantly higher”. For the same substance, the “migration of cells on fibronectin” value in the assay with HLE and HLF cells is recorded as “impairs the migration”. Besides, the “cell proliferation, rhPRG4 alone” value in assay [1] is on record as “did not markedly impair the cell proliferation”. The rhPRG4-drug synergistic effect entry with PLC/PRF/5 is listed as “did not respond at all”.
